Test results: the nanobody polyreactivity screen of Harvey et al. (2022)

Assay: yeast display, Sf9 membrane polyspecificity reagent, FACS + sequencing; frameworks hold sequencing errors
How it was run: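 Nanobodies from a synthetic yeast display library (Saccharomyces cerevisiae BJ5465), induced 36–48 hours with galactose, were stained 1 hour at 4 °C with 10% biotinylated, detergent-solubilized Sf9 membrane reagent, enriched on streptavidin microbeads, then FACS-sorted. Anti-HA (expression) and streptavidin (reagent binding) fluorescence set low and high (top ~1%) gates. Polyreactivity labels come from the gate of origin. Genes were colony-PCR amplified, MiSeq 2 × 250 sequenced and filtered by CDR length.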

Sequence | polyreactivity (PSR sort gate)
QDQLEESGGGLVQAGGSLRLSCAASGRIFFRNLMGAYRQPTGKERELVATITSGGRTYYADSVKGRFTISRDNAKNTVYLQMNSLKPVDTAVYYCATVYRPGGVYGYEYWGQGTQVTVSS | high polyreactivity
QDQLEESGGGLVQAGGSLRLSCAASGRTFIYYAMGWYRQAPGKERELVAAITRSGGITNYADSVKGRFTISRDNSKNTVYLQMNSLKTEDTEVYYCAARFYGRRCIYGYWGQGTQVTVSS | high polyreactivity
QDQLGESGGGLVQAGGSLRLSCAASGFTFWWYAMGWYRQAPGKERELVAGITSGASTYYADSVKGRYTISRDNAKNTVYIQMNSLKPEDTAVYYCAADWLGWYQPYDYWGQGTQVTVSS | low polyreactivity
QDQLGESGGGLVQAGGSLRLSCAASGSTFTWYAMGWYRQAPGKERELVAAISRGGSTNYADSVKGRFTISRDNAKNTVYLQMNSLKPEDTAVYYFAAESYWRDDYWGQGTQVTLSS | low polyreactivity
QDQLVDSGGGLDQAGGSLRLSCAASGIIFPRYALGWYRQAPGKERELVAAITRRGGRTYYADSVKGRFTISRDNAKNTVYLQMNSLKPEDTAVYYCNADFISTLPPKATEEDYWGQGTQVTVSS | high polyreactivity
QDQLVDSGGGLLQAGGSLSLSCAASGHIIQVKTMGWYRQAPGKERELVASISASVGSTYYADSVKGRFTISRDNAKNTVYLQMNSLKPEDTAVYYCAKSLGYSVVRTLSPTGFYYWGQGTQVTVSS | low polyreactivity
QDQLVDSGGGLVQAGGSLRLICAASGYIIHDNAMGWYRQAPGKERELVAAINRGGSTHYADSVKGRFTISRDNAKNTVYLQMNSLKPEDTAVYYCAAKDGRSYYDRTPMDYWGQGTQVTVSS | low polyreactivity
QDQLVDSGGGLVQAGGSLRLRCGASGRILAWYAMGWYRQAPGKEREFVAGNTGSVGSTYYADSVKGRFTNSRDNEKNTVDLQMNSLKPEDTAVYYCYNEWDSTSGQKHYYWGQGTQVTVSS | low polyreactivity
QDQLVDSGGGLVQAGGSLRLSCAASGRIFTINAMGWYRQAPGKERELVAAITYSGGSTYADSVKGRFTISRDNAKNTVYLQMNSLKPEDTAVYYCNAKLTWSRRYVRYNYWGQGTQVTVSS | high polyreactivity
QDQLVDSGGGLVQAGGSLRLSCAASGSTFGYYVMGWYRQAPGKERELVAAISDSDGSTYYADSVKGRFTISRDNAKNTVYLQMYSLKPEDTAVYYCATGPHQPPYSYLDYDYWGQGTQVTVSS | low polyreactivity
QDQLVDSGGGLVQAGGSLRLSCAASGSTFYYYTMGWYRQAPGKEGELVAAITSGGSTYYADSVKGRFTISRDNAKNTVYLQLNSLKPEDTAVYYCAADLRRNGWGFDYWGQGTQVTVSS | high polyreactivity
QDQLVDSGGGLVQAGGSLSLICAATGLIFNRNAMGWYRQAPGKERELVASISSGGRTNYADSVKGRFTISRDNAKNTVYLQMNSLKPEDTAVYYCAAKSPRILLDYWGQGTQVTVSS | low polyreactivity
QDQLVDSGGGLVQAGGSLSLSCAASGYILDYYAMGWSRQAPGKERELVAAISYRGDSTYYADSVKGRFTISRDNEKNTVYLQMNSLKPEDTAVYYCNAGYFTRAQYEYDYWGQGSQVTVSS | high polyreactivity
QDQLVESAGGLVQAGGSLRLSCAASGLTFWDYAMGWSRQAPGKERELVAGINTRGTSTYYADSVKGRFTISRDNAKNNVYLQMNSLKPEDTAVYYCAARVRSELIKRYYWGQGSQVTVSS | high polyreactivity
QDQLVESAGGLVQAGGSLRLSCAASGRIYVSNVMRWSRQAPGKERELVAAIDKSGGSTYYADSVKGRFTISRDNAKNTVYLQMNSLKPEDTAVYYCAATSYRQPYRYYYWGQGTQVTVSS | high polyreactivity
QDQLVESAGGLVQAGGSLSLSCAATGFTFYYNAMGWYRPAAGKERELVASITRSGGRTYYADSVKGRFTISRDNAKNTVYLQMNSLKPEDTAVFYCARRYPGGYYWGQGTQVTVSS | high polyreactivity
QDQLVESCGGLVQARGSLRLSCAASGFTFRYNAMGWYRQAPGKERELVAAITGSTGTTYYADSVKGRFTISRDNAKNTVYLQMNSLKPEDTAVYYCAATFRDQHGSLYGYWGQGSQVTVSS | high polyreactivity
QDQLVESGAGLVQAAGSLRLSCAASGSTFDTYALGWYRQAPGKERELVAAISVSGTSTSYADSVKGRFTISRDNAKNTVYLQMNSLKPEDTAVYYCNATDFSRNPGYARPEYDYWGQGTHVTVSS | low polyreactivity
QDQLVESGAGLVQAGGSLRLSCAASGRIFDRYAMGWYRQAPGKEREMVAAITTSSGGSTYYADSVKGRFTISRDNAKNTVYLQMHSLKPEDTAVYYCAADRRYNVIGEFGYWGQGTQVTVSS | low polyreactivity
QDQLVESGGCLDQAGCSLRLSCAASGSIFYYNAMGWSRQAHGKESEFVATITNSGGRTYDADSVKGRFTISRDNAKNSVYLQMNSLKPEDTAVYYCNADVHRFSGNGYRYYYWGQGTQVTVSS | low polyreactivity

Sequence | polyreactivity (PSR sort gate)
QDQLVESGGCLVQAGGSLRLSCAASGSIFYVNAMGWYRPAPRKERELVAGISRSGGRTYYADSVKGRFTISRDNAKNTVYLHMNSLIPEDTAVYYCAALVGRIWYGLDYWGQGTQVTVSS | high polyreactivity
QDQLVESGGCLVQAGGSLRLSCAASGSTFDTNSMGWSRQAPGKERELVAAISGSGVRTYYADSVKGRFSISRDNAKITVYLQMNRLNPEDTAVYYCAARGSRRGTWYDYWGQCTQVTVSS | high polyreactivity
QDQLVESGGGIVQAGGSLRLSCAASGIIFGFYAMGWYIKAPGKERELVASISYSGGRTYYADSVKGRFTISRDNAKNTFYLQMISLKPEDTAVYYCAARLYWIPPSPSRYDYWGQGTQVTVSS | high polyreactivity
QDQLVESGGGIVQAGGSLRLSCAASGRTFVAYAMGLYRQAPGKEREFVARISSGGSTYYADSVKGRFTISRDNAKNTVYLQMNSLKPEDTAVYYCAADRGPYFVPWRRYDYWGQGTQVTVSS | low polyreactivity
QDQLVESGGGIVQAGGSLRLSCAASGRTFYRYAMGWYRQAPGKERELVATISGGGSTNYADSVKGRFTISRDNAKNTVYFQMNSLKPEDTAVYYCAVRLRPPYYLPYYYWGQGTQVTVSS | high polyreactivity
QDQLVESGGGLDQAGGSLRLSCAASGNIFYSYAMGCYRQAPGKERELVAAISSSGGRTYYADSVKGRFTISRDNAKNTVYLQMNSLKPEDTELYYCNAYVQVMRYLFGRPTVYPYDYWGQGTQVTVSS | high polyreactivity
QDQLVESGGGLDQAGGSLRLSCAASGRIFYPYTMGWYRQAPGKERELVAANTRSAASTHYADSVKGRFTISRDNAKNTVYLQMNSLKPEDTAVYYCAADDRGSSYGHFTVEYGYWGQGTQVTVSS | low polyreactivity
QDQLVESGGGLDQAGGSLRLSCAASGRILIIYAMGWYRQAPGKERELVARITYTGGRTYYADSVKGRFTISRDNAKNTVYLQMTSLKPEDTAVYYCATVWSRSDSSSHYDYWGQGTQVTVSS | low polyreactivity
QDQLVESGGGLDQAGGSLRLSCAASGRTFRKYAMGWYSQAPGKERELVAAITTSGARTYYADSVKGRFTISRDNAKNTVYLQMNILKPDDTAVYYCNAVSPYDGIEFDYWGLGTQVTVSS | high polyreactivity
QDQLVESGGGLFQAGGSLRLSCAASGFTFTSYNMGWYRQAPGKEMELVAGISLSGGDTSYADSVKGRFTISRDNAKNTVYLQMNSMKPEDTAVYFCAKSYVNYAFDSWGHGTQVTVSS | high polyreactivity
QDQLVESGGGLGQAGGSLRLSCAASGSTFNNYAMGWYRQAPGKERELVAVITKRGGSTYYADSVKGRFTISRDTAKNTVHLQMNSLKPEDTAVYYCPASSLYDGYWGQGTQVTVSS | high polyreactivity
QDQLVESGGGLGQAGGTLRLSCAASGNTFTFNTMGWHRQEPGKEREVVAVISRSGGSTYYSDSVKGRITISRDNAKNTVYLQMNSLKPEDTAVYYCAAQGYWYGFVPYDYWGQGTQVTVSS | high polyreactivity
QDQLVESGGGLLQAGGSLRLSCAASGRNFVRNAMGWYRQAPGKEWELVAAISWSSGGTYYADSVKGRFTISRDNAKYTVYLQMNSLKPEDNSVYYCNARGWTLGADFGYWGQGTQVTVSS | low polyreactivity
QDQLVESGGGLLQAGGSLRLSCAASGYTFPIYAMGWYRQAPGKERELVAGISKNGGSTYYADSVKGRFTISRDNAKNTVYLQMNSLKPEDTEVYYCNASAWGRPYYRGSYFVFPGYEYWGQGTQVTVSS | low polyreactivity
QDQLVESGGGLVPAGGSLRLSCAASGGILPQYAMGWYRQAPGKERELVAAITRGGARTYYADSVKGRFTISRDNAKNTVYLQMTSLKPEDTAVYYCAARGPGYQLYDYWGQGTQVTVSS | high polyreactivity
QDQLVESGGGLVQAGASLRLSCAASGNIFANAMGWYRQAPGKQRELVAAISRSGGRTYYADSVKGRFTISRDNANNTVYLQMKSLIPEDTAVSYCNKAAYNYYLYGYWGQGTQVTVSS | high polyreactivity
QDQLVESGGGLVQAGASLRLSCAASGRISYYYTMGWYRQAPGKERELVAAISWSGGTTYYADSVKGRFTISRDNAKNTVYLQMNSLKPDDTAVYYCAAREYYTDVHGTRRYDYWGQGTQVTVSS | low polyreactivity
QDQLVESGGGLVQAGCSLRISCAASGRTFGVYAMGWYRQAPGKERELVAAINRSGTRTYYADSVKGRFTISRDHAKNTVYLPMNSLKPEDTAVYYCAASWYPGSRNYDYWGQGTQVTVSS | high polyreactivity
QDQLVESGGGLVQAGCSLRLSCAASGRIFSWYTMGWYRPAPGKERELVAVITSGGTTKYADSVKGRITISRDNAKNTVYLQMNSLKPEDTAVYYCNVAGRDYAVRWGSFDYWGQGTQVTVSS | low polyreactivity
QDQLVESGGGLVQAGGILRLSCAASGITFSYYTMGWYSQAPGKERELVAGITRSGSTYYADSVKGRFTISRDNAKNTVYLQMNSLKPEDTAVYYCAAEIYAFSGLYYYCGQGTQVTVSS | high polyreactivity
